Laboratory results as given in patent publication US10428140B2, “Anti-EphA4 antibody” (EISAI R&D MANAGEMENT CO., LTD., priority 2015, dated 2019).

Tested on: human iPS cell-derived motor neuron / variant human SOD1 (G93A)-expressing astrocyte coculture
Test: Motor neuron protection in in vitro ALS model derived from human iPS cells
Assay type: cell-based
Conditions: antibody A 10, 30, 100 nM; EphA4-Fc 3, 10, 30 nM; KYL peptide 1, 3, 10 μM; 2 days
Protocol: Human iPS cells were maintained and cultured according to the following steps. Human iPS cells (201B7) cryopreserved in liquid nitrogen using Stem cell banker (TAKARA) were taken out of the gas phase of liquid nitrogen and immediately suspended and thawed in 5 mL of a human iPS cell culture medium (Essential 8, Thermo Fisher Scientific) prewarmed to 37° C. The cell suspension was recovered into a 15-mL conical tube (Falcon) and centrifuged (1000 rpm, 5 min, room temperature), followed by the removal of the supernatant. The cells were suspended in a fresh medium and then disseminated to a ϕ60 mm cell culture dish (Falcon BD) coated with 0.5 μg/cm^2 Human recombinant vitronectin (Invitrogen) in advance. 10 μM Y-27632 (Wako Pure Chemical Industries) was added thereto, and the cells were maintained and cultured in a CO2 incubator (5% CO2, 37° C.). Medium replacement was performed every day, and the cells were subjected to the experiment when reaching confluency.
The culture medium of the maintained and cultured human iPS cells was aspirated, and the cells were washed with 2 mL of PBS (Wako Pure Chemical Industries). […] Then, the number of cells was counted using a counting chamber. […]

B1: antibody A: mouse anti-EphA4 monoclonal antibody, IgG1/κ; heavy chain variable region SEQ ID NO: 11, light chain variable region SEQ ID NO: 13 (antibody, listed as Mus musculus, V domains shown)
VH: QIQLVQSGPELKKPGETVKISCKASGYTFTDYSMHWVKQAPGKGLKWMGWINTETGEPTYADDFKGRFAFSLETSASTAYLQINNLKNEDTATYFCARIPLYYYGSRYWYFDVWGAGTTVTVSS
VL: DIQMTQSPASLSVSVGETVTITCRASENIYRNLAWYQQKQGKSPQLLVYAATNLADGVPSRFSGSGSGTQYSLKINSLQSEDFGSYYCQHFWGTPWTFGGGTKLEIK
suppression of motor neuron death / motor neuron protective effect (in words): suppressed, in a concentration-dependent manner
